From paper PMC2191977 (The Journal of Experimental Medicine, 1995)
Substitutions are numbered along the chain they refer to.

Tests used:
Experiment in all cases: flow cytometry on cells
B7 P172A = biological target: T1, B7 P172A (mouse, UniProt Q00609 38-306, P172A)
T1 sequence (looked up): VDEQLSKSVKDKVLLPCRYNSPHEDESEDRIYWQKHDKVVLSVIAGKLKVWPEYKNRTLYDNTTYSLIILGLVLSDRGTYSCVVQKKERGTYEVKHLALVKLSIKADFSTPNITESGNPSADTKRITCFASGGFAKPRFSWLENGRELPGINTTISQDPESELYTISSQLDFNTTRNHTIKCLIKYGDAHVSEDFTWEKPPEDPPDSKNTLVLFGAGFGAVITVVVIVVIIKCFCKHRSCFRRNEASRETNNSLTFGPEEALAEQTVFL

B7 E199A = biological target: T2, B7 E199A (mouse, UniProt Q00609 38-306, E199A)
T2 sequence (looked up): T1 sequence (looked up) with A135P, E162A

B7 R175S = biological target: T3, B7 R175S (mouse, UniProt Q00609 38-306, R175>S (CGC>AGC))
T3 sequence (looked up): T1 sequence (looked up) with A135P, R138S

[1] = biological target: T4, B7 QDP/LEH (Q194L, D195E, P196H) (mouse, UniProt Q00609 38-306, Q194D195P196>LEH)
T4 sequence (looked up): T1 sequence (looked up) with A135P, Q157L, D158E, P159H

B7 K173E = biological target: T5, B7 K173E (mouse, UniProt Q00609 38-306, K173E)
T5 sequence (looked up): T1 sequence (looked up) with A135P, K136E

B7 L200A = biological target: T6, B7 L200A (mouse, UniProt Q00609 38-306, L200A)
T6 sequence (looked up): T1 sequence (looked up) with A135P, L163A

% wild-type B7 binding (normalised to anti-B7 mAb 10.16A.1) (B7 P172A): 7% | MF (mean fluorescence, control subtracted) (B7 P172A): 2 MF | % wild-type B7 binding (normalised to anti-B7 mAb 10.16A.1) (B7 E199A): 31% | MF (mean fluorescence, control subtracted) (B7 E199A): 16 MF | % wild-type B7 binding (normalised to anti-B7 mAb 10.16A.1) (B7 R175S): 26% | MF (mean fluorescence, control subtracted) (B7 R175S): 15 MF | % wild-type B7 binding (normalised to anti-B7 mAb 10.16A.1) [1]: 3% | MF (mean fluorescence, control subtracted) [1]: 1 MF | % wild-type B7 binding (normalised to anti-B7 mAb 10.16A.1) (B7 K173E): 77% | MF (mean fluorescence, control subtracted) (B7 K173E): 44 MF | % wild-type B7 binding (normalised to anti-B7 mAb 10.16A.1) (B7 L200A): 53% | MF (mean fluorescence, control subtracted) (B7 L200A): 28 MF
B1: CD28Ig (Fc fusion, mouse, UniProt P31041 20-150, looked up)
chain: NKILVKQSPLLVVDSNEVSLSCRYSYNLLAKEFRASLYKGVNSDVEVCVGNGNFTYQPQFRSNAEFNCDGDFDNETVTFRLWNLHVNHTDIYFCKIEFMYPPPYLDNERSNGTIIHIKEKHLCHTQSSPKL
